Literature values, collected in article PMC7443330.

Target: Spike RBD RBD (SARS-CoV-2) (UniProt P0DTC2)

In the case of Spike binding peptide 1 (SBP1), the Kd is listed as 47 nM.
